From patent US20190216790A1, “Methods for Treating Pruritis” (The Regents of the University of California, priority 2016, published 2019)
Entries after “also recorded” stand apart in the source; their conditions may differ.

Test system: mice
Assay: CXCL1-induced itch, subcutaneous injection in mice
Format: in vivo
Description: CXCL1 is the mouse homologue for human Interleukin-8, which is increased in several inflammatory skin disorders including psoriasis and atopic dermatitis. […] Importantly, CXCL1-induced itch is entirely dependent on neutrophils (FIG. 1B). […] In addition, loss of TRPA1 results in reduced CXCL1 expression in skin. Blocking/ablation of the high-affinity LTB4 receptor, BLT1, also results in reduction of CXCL1-induced itch (FIG. 1C). Both LTB4 and reactive oxygen species (ROS) are produced by neutrophils and have been proposed to directly activate neurons and induce itch. It is shown here that neutrophils also play a key role in chronic itch. In a mouse model of atopic dermatitis, depletion of neutrophils during induction of itch drastically reduces itch and inflammatory responses (FIG. 1D). It is shown here that CXCL1 is increased in multiple mouse models of chronic itch, and LTB4 is increased in skin of mice with atopic dermatitis. It is proposed that neutrophils activate sensory neurons through the ion channel TRPA1 in a CXCL1/BLT1/LTB4-dependent fashion (FIG. 1E).
FIG. 1A-1E. […] (D) Depletion of neutrophils in a mouse model of atopic dermatitis greatly reduces itch. (E) Model showing proposed interactions. Atopic dermatitis results in increased levels of IL8 (humans) or CXCL1 (mice) that recruits neutrophils. Neutrophils activate sensory neurons to promote itch in a TRPA1 and BLT1-dependent manner. For all data, one-way ANOVA was performed with a Tukey-Kramer post hoc statistical analysis. Tukey-Kramer values are reported and only p<0.05 were considered significant; **=p<0.005; ***=p<0.0005; n.s.=not significant.

B1: CXCL1: a neutrophil chemoattractant and natural ligand for CXCR2; the mouse homologue for human Interleukin-8 (protein, UniProt P12850 25-96, looked up)
Growth-regulated alpha protein: APIANELRCQCLQTMAGIHLKNIQSLKVLPSGPHCTQTEVIATLKNGREACLDPEAPLVQKIVQKMLKGVPK
B1 was tested, and the CXCL1-induced itch (depletion of neutrophils (FIG. 1B)) was “abolishes CXCL1-induced itch”, the itch (injected subcutaneously in mice (FIG. 1A)) was “robustly induces itch; also recorded: induces robust itch” and the “itch responses to CXCL1” value (mice lacking TRPA1 (FIG. 1A)) was “reduced itch responses”. For the same molecule, the “itch responses to CXCL1 injection” value (mice lacking the LTB4 receptor (BLT1) (FIG. 1C)) was “reduced itch responses”.
